Results as given in publication PMC548802.

What was measured:
[1] = biological target: tetranectin in which lysine 148 was replaced with alanine (TN^K148A) (human) (UniProt P05452); experiment: ELISA
[2] = biological target: tetranectin with substitution of threonine 149 with tyrosine (TN^T149Y) (human) (UniProt P05452); experiment: ELISA

Substance: recombinant human angiostatin containing kringle domains 1-4 (AST^K1-4) (domain or fragment)
- ELISA specific binding (OD 450, binding to BSA subtracted) [1]: 0.06 OD 450
- ELISA specific binding (OD 450, binding to BSA subtracted) [2]: 1.83 OD 450

Substance: recombinant human angiostatin containing kringle domains 1-3 (AST^K1-3) (domain or fragment)
- ELISA specific binding (OD 450, binding to BSA subtracted) [2]: 0.43 OD 450

Substance: human plasminogen (natural protein)
- ELISA specific binding (OD 450, binding to BSA subtracted) [2]: 1.73 OD 450
